Experimental data from publication doi:10.1101/2020.09.10.288878.

Target: taxol-stabilized microtubules polymerised from porcine brain tubulin (porcine) (UniProt P02550)
Assay: co-sedimentation

| Substance | decrease in the pellet fraction against MBP-MTB-WT [%] |
| --- | --- |
| MBP-MTB-12Q (MBP-tagged Sli15 microtubule binding domain, twelve basic SAH residues to glutamine) (domain or fragment) | 20 |
| MBP-MTB-ΔSAH (MBP-tagged Sli15 microtubule binding domain with the SAH region deleted) (domain or fragment) | 20 |
